In patent US6797467B1, “Compositions and methods for determining interactions of mitochondrial components, and for identifying agents that alter such interactions” (MitoKor, Inc., priority 1999, dated 2004):

Key:
[1] = molecular target: T1, CypD rotamase activity (Homo sapiens, UniProt P30405); assay: Rotamase (peptidylprolyl cis-trans isomerase) solvent jump assay; format: biochemical; details: relative to reactions without added enzyme; FIG. 12, 13
T1 construct: made in house; host or cells: E. coli (pMK12-GST-huCypD)
Protocol: Cyclophilin binding to ANT present in the SMP was determined using soluble recombinant GST-cyclophilin D (see Example 10, above). Rotamase (peptidylprolyl cis-trans isomerase) activity of the GST-CypD preparation was determined according to the “solvent jump” method of Kofron et al. (1991 Biochemistry 30: 6127-6134). Briefly, Ala-Ala-cis/trans-Pro-Phe-pNa was used as the rotamase substrate, coupled with α-chymotrypsin cleavage of all trans-Pro containing peptide to yield p-nitroanilide, detected by absorbance at 390 nm.

[2] = molecular target: T2, His-tagged huANT3 : CypD-GST interaction (Homo sapiens, UniProt P30405); assay: Nickel bead immunoassay of huANT3:huCypD interaction (Western, anti-GST); format: binding
T2 construct: made in house; host or cells: His-huANT3: Trichoplusia ni cells infected with baculovirus (pMK4B-huANT3); GST-huCypD: E. coli (pMK12-GST-huCypD)
Protocol: Each portion was suspended in 1 ml of MSB with protease inhibitors (leupeptin, final concentration 10 ug/ml; pepstatin, final concentration 10 ug/ml; aprotinin, final concentration, 2 ug/ml; phenylmethylsulfonyl fluoride {PMSF}, final concentration, 100 μM; all from Sigma Chemical Co., St Louis, Mo.). The resuspended cell suspensions were frozen and thawed twice, then homogenized using a rotating teflon-coated probe and a close-fitting glass container (10 passes). The cellular homogenate was centrifuged (3,700 rpm, approximately 1,500×g) at 4° C. for 5 minutes; this supernatant from the first spin was saved. The pellet was washed with about 500 μl of MSB with protease inhibitors, centrifuged (3,800 rpm, approximately 1,600×g) at 4° C. for 5 minutes, and supernatant from this spin was combined with the supernatant from the first spin. The combined supernatant was centrifuged (14,000 rpm, approximately 20,800×g) at 4° C. for 15 minutes, and the pellet was resuspended in 300 μl of a 1:1 solution of (a) 20 mM MOPS and (b) MSB, wherein both (a) and (b) contain the previously described protease inhibitors. The resultant suspension was frozen and thawed three times.
One hundred (100) μl of T. ni mitochondria (9.83 μg/ml) was thawed slowly on ice and then centrifuged at 4° C. for 15 minutes to pellet mitochondria. […]
The extracts were evaluated by Western analysis. […]

[3] = molecular target: T3, ANT present in the SMP (recombinant human ANT3) (Homo sapiens, UniProt P30405); assay: GST-CypD binding to submitochondrial particles (SMP) from T. ni cells expressing His-tagged huANT3; details: 2.6 μM GST-CypD, 1 mg SMP; 0 hr, 3 hr, 6 hr; FIG. 11
T3 construct: made in house; host or cells: His-huANT3: submitochondrial particles of baculovirus-infected Trichoplusia ni cells; GST-huCypD: E. coli
Protocol: SMP preparation was according to a modification of Halestrap et al. (1998 Biochim. Biophys. Acta 1366:79-94), and all steps were performed at 4° C. Starting material was one liter of cell culture, corresponding to 1×10^9 T. ni cells. Cells were pelleted by centrifugation and stored frozen at −20° C. For isolation of mitochondria, the cell pellet was thawed and resuspended in 15 ml of mitochondrial isolation buffer (MIB, all reagents from Sigma, St. Louis, Mo., unless otherwise noted): 0.22 M mannitol, 70 mM sucrose, 10 mM Hepes, 0.2 mM EDTA, 0.2 mM 2-mercaptoethanol (2-ME), pH 7.2 plus a standard protease inhibitor cocktail (Roche Molecular Biochemicals, Indianapolis, Ind.). The suspension was subjected to two freeze-thaw cycles by shell-freezing the container in a dry ice/ETOH bath and then thawing the suspension at room temperature, and was then diluted with 20 ml of MIB. The suspension was next homogenized with 10 strokes in a Potter-Elvehjem homogenizer (rheostat setting 28). The resulting homogenate was further diluted with MIB to a volume of approximately 200 ml and centrifuged at 600×g at 4° C. for 10 min. […] Protein concentration was measured using the Pierce BCA (Pierce Chemical Co., Rockford, Ill.) according to the manufacturer's instructions. […]

[4] = molecular target: T4, ANT/BR PLS (human ANT3 and bacteriorhodopsin) (Homo sapiens, UniProt P30405); assay: GST-CypD binding to proteoliposomes reconstituted with huANT3 and bacteriorhodopsin (ANT/BR PLS); details: FIG. 14
T4 construct: GST-huCypD: E. coli; Bacteriorhodopsin: purchased
T4 sequence (P30405 30-207): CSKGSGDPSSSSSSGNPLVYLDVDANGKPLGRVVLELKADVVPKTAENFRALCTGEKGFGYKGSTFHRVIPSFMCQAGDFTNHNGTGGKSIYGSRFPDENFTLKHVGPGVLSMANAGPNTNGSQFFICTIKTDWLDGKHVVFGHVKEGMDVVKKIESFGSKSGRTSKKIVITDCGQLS
Protocol: Preformed liposomes were prepared by a freeze/thaw/sonication procedure. Briefly, egg-yolk lecithin (240 mg) was suspended in 3 ml of reconstitution buffer (50 mM NaCl, 10 mM HEPES, pH 7.4). The suspension was pulsed with argon stream to remove oxygen, partially frozen by contacting the vessel with a dry ice/ethanol bath, and sonicated as described above for SMP except the sonication period was for 1 min. The freeze/sonication step was repeated at least 3-4 times until clarification of lipid suspension was achieved.
Small EconoColumns™ (BioRad, Hercules, Calif.) were filled with 1.7 gm of SM-2 BioBeads™ (BioRad), washed with methanol followed by water, and equilibrated with the reconstitution buffer. […] Control (protein-free) liposomes were prepared in parallel by adding 0.5 ml of the elution buffer (50 mM NaCl, 1 mM EDTA, 10 mM Hepes, 1.3% Triton X-100™) to 200 μl of the liposome suspension. Each mixture was vortexed, applied to the BioBeads™ SM-2 column and passed through the column 5-6 times. Formation of proteoliposomes was visualized by apparent turbidity of the solution. Non-entrapped MUP or ATP was removed either during pelleting of the proteoliposomes by centrifugation, or by filtration of the proteoliposome suspension on a column of Sephadex™ G-50 (Pharmacia, Piscataway, N.J.).
Bacteriorhodopsin (BR) was co-reconstituted into the ANT liposomes as follows. […]

T1 sequence (P30405 30-207): as above
T2 sequence (P30405 30-207): as above
T3 sequence (P30405 30-207): as above

Row | Substance | rotamase activity [1] | amount of CypD-GST retained on beads ([2]; His-tagged huANT3 present (lanes 2', 3') versus absent (lane 1')) | binding of CypD-GST to His-tagged ANT3 on a solid support ([2]; summary statement) | GST-CypD in SMP pellet fractions [3] | binding of GST-CypD to ANT/BR PLS [4]
1 | His-CypD: recombinant polyHis-tagged human CypD fusion protein, purified on nickel columns or by FPLC | rotamase activity was also demonstrated | – | – | – | –
2 | GST-CypD: recombinant glutathione S-transferase-human cyclophilin D fusion protein expressed from pMK12-GST-huCypD | readily apparent rotamase activity | visibly increased by roughly an order of magnitude | specifically binds | readily detectable | readily apparent
3 | Ek-CypD: CypD liberated from the polyHis fusion tag following enterokinase cleavage | rotamase activity was also demonstrated | – | – | – | –
